This is an account of results in patent US20200255503A1.

For assay [1], the target named is natural Fel d1 (cat (Felis domesticus)) (UniProt P30438). The assay is described as follows: SPR Biacore T200 sequential binding, 25 µg/mL mAb2 over mAb1:Fel d1; coupled mAb1: REGN1909.
Assay [2] has the same target. The assay is described as follows: blocking ELISA, Fel d1 binding to plate-captured polyclonal human IgE. In general terms: An ELISA detects its analyte on a solid surface through an enzyme-linked reagent.
In assay [3] the target is Fel d1 (B-A)-mmH (cat (Felis domesticus)). The assay is described as follows: blocking ELISA, Fel d1 binding to donor polyclonal cat-allergic IgE.
Sequence of Fel d1 (B-A)-mmH (cat (Felis domesticus)) (chain, as listed by the source limits assumed): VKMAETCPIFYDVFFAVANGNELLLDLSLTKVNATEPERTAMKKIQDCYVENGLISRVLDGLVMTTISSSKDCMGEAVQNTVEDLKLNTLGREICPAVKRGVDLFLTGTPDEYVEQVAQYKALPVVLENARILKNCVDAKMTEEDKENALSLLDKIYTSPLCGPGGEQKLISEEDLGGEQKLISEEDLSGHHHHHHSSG
Assay [4] has as its target natural Fel d1 (cat (Felis domesticus)) (UniProt P30438). Description: cell-based or functional assay.

One may read the IC50 as the midpoint of a concentration-inhibition curve. The low end stands for higher potency, the high end for lower potency.

Regarding Non-binding Control mAb (antibody), the Non-binding Control mAb (RU) in assay [1] is -64 RU.

In assay [2], REGN1908-1909 registered an IC50 of 0.45 nM and a maximum blockade of 83%. The substance also displayed an IC50 in assay [3] of 0.58 nM. In assay [4], this substance yielded a basophil activation test, CD63 upregulation on basophils of cat-allergic donors, IC50 of 10 pM; a basophil activation test, CD203c upregulation on basophils of cat-allergic donors, IC50 of 55 pM; a phosphoflow assay, phosphorylation of ERK in basophils, inhibition of more than 80%.
